US20060078911, “Oxidative DNA damage protection” (published 2006)

How the values were obtained:
[1] = biological target: PC4 (full length wild type) (Homo sapiens, UniProt P53999 SEQ:1-127); test: EMSA; complete binding at 352 nM PC4 without XPG; second shifted band at 704 nM; 2.5 nM DNA, 110 mM KCl, 1 mM EDTA, poly(dI-dC), pH 7.5, room temp; with XPG (41 nM) present complete binding at 44 nM; details: tags: expressed in E. coli BL21(DE3); chain copies: 2 (inferred); label: 5'-32P on 10T-strand; duplex with central 10-nt unpaired bubble
Procedure: (§1) 2.5 nM of the 10-nt bubble DNA substrate was incubated with 41 nM of purified XPG (lanes 2-7) or without XPG (lanes 9-13). Reaction mixtures were supplemented with 44 nM (lanes 3 and 9), 88 nM (lanes 4 and 10), 176 nM (lanes 5 and 11), 352 nM (lanes 6 and 12) and 704 nM (lanes 7 and 13) of human PC4 protein, respectively. Samples were loaded onto a 4.5% native gel and electrophoresis was conducted at 150 V for 2 hours at 4° C. The gel was dried and exposed on a phosphorimager screen. No protein was added in lanes 1 and 8.
(§2) The 10T-strand was 5′-end labeled with T4 polynucleotide kinase and [γ-³²P]ATP and annealed with the complementary 10C-strand by heating for 3 minutes at 90° C. and cooled to room temperature. […] The gels were visualized by phosphorimager and analyzed using ImageQuant™ software (Molecular Dynamics).
(§3) To determine if XPG affects PC4 interaction with DNA bubbles, we pre-incubated the 10 bp bubble DNA with XPG and then added PC4 at varying concentrations (FIG. 9A, lanes 3-7). XPG strongly stimulated PC4 binding, with complete binding achieved at the lowest PC4 protein concentration analyzed (44 nM, lane 3) as compared to 352 nM in the absence of XPG Correspondingly, the tetramer-bound complex appears at lower concentrations (352 nM, lane 6) in the presence of XPG In no case did we observe a trimeric complex of XPG, PC4, and DNA. […]

XPG = biological target: T1, XPG (Homo sapiens, UniProt P28715 P28715:1-1186); test: EMSA; 41 nM XPG gives slowly migrating complex; displaced by PC4; 110 mM KCl, 1 mM EDTA, pH 7.5, room temp; details: tags: expressed in High5 insect cells (pFASTBAC); label: 5'-32P on 10T-strand; duplex with central 10-nt unpaired bubble
T1 sequence: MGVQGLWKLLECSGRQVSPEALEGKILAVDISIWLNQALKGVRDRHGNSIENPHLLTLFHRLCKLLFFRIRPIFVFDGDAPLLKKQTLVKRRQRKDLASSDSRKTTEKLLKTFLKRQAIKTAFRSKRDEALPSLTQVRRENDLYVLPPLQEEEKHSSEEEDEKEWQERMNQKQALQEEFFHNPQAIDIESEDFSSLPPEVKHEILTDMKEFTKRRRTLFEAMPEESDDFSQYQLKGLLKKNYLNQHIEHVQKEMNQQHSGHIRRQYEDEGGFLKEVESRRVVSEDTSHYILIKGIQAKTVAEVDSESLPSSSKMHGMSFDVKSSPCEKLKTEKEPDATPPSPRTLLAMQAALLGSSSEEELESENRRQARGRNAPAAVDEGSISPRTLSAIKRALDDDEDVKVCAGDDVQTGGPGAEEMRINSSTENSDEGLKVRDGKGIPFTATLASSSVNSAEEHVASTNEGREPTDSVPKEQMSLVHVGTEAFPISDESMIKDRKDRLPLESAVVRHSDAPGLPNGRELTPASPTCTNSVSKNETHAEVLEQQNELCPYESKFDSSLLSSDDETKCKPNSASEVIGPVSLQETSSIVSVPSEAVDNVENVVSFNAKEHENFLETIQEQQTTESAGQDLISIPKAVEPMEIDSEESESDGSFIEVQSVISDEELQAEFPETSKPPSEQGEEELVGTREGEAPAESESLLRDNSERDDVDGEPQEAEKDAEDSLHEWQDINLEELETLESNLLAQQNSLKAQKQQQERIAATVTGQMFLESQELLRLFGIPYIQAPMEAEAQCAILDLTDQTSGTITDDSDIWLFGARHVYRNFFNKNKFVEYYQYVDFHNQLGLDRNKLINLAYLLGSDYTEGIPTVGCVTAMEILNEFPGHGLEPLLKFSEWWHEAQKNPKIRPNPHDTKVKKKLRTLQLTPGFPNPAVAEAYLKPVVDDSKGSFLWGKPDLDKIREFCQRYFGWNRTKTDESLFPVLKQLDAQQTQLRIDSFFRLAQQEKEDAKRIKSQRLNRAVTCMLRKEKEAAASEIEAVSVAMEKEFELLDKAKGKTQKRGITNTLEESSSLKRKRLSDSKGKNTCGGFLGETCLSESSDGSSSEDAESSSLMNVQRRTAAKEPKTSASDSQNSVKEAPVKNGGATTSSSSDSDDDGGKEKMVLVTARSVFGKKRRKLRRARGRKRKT
Procedure: as §1, §2, §3

B1: 10-nt bubble DNA (10T/10C) (structured_DNA)
DNA 1: GGGCAGACAACGTGGCGCTGTTTTTTTTTTGTGTCCTAGCACAGCGTATG
DNA 2: CATACGCTGTGCTAGGACACCCCCCCCCCCCAGCGCCACGTTGTCTGCCC
B1: binds [1]; binds (XPG).
